Measurements published in the supplement of paper PMC10724198.
± gives the standard deviation of the averaged measurements.

Test system: Saccharomyces cerevisiae
Experiment: protein stability index of tFT-peptide fusion (C-terminal peptide) (PSI (0-1 scale)); higher = more stable (slower turnover)
Settings: temperature: 30 C
Description: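 MPS profiling in S. cerevisiae of the yeast C-terminome library: the last 12 aa of each annotated ORF are fused to the C-terminus of a sfGFP-mCherry timer, after a GGGS linker. Cells are FACS-sorted into 8 mCherry/sfGFP bins and deep-sequenced. PSI runs from 0 (unstable) to 1 (stable); wild type and das1Δ backgrounds, two technical replicates each.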

[1] = genetic background: das1 deletion

Sequence	protein stability index [1]	protein stability index (genetic background: wild type)
WAIESVDENWRF [TOP1 C-terminal 12 aa]	0.746 ± 0.032	0.773 ± 0.04
WARRSFSSYDLC [GID11 C-terminal 12 aa]	0.7053 ± 0.0036	0.694 ± 0.011
WDLEQIMSQHGF [PCL1 C-terminal 12 aa]	0.7397 ± 0.007	0.735 ± 0.0046
WLTTKMSSSEAS [UIP4 C-terminal 12 aa]	0.708 ± 0.014	0.741 ± 0.025
WNCFLSMRNASK [YOR292C C-terminal 12 aa]	0.693 ± 0.012	0.72 ± 0.028
WRFLGIVKSPNT [YDR510C-A C-terminal 12 aa]	0.6815 ± 0.0017	0.693 ± 0.013
WRQEYPGVDEFF [PRM8 C-terminal 12 aa]	0.742 ± 0.0099	0.748 ± 0.045
YAGIPENKIIGV [ARG56 C-terminal 12 aa]	0.703 ± 0.048	0.702 ± 0.021
YCLAGVLCVFCV [YPR064W C-terminal 12 aa]	0.431 ± 0.013	0.433 ± 0.0085
YDKESDDRKCCL [CTR3 C-terminal 12 aa]	0.681 ± 0.0083	0.675 ± 0.034
YGISSSVLKGST [PHO87 C-terminal 12 aa]	0.7153 ± 0.0032	0.676 ± 0.009
YGLNIGRPDFYR [TAF10 C-terminal 12 aa]	0.725 ± 0.016	0.7099 ± 0.0023
YHAVDSTMSPKN [OST4 C-terminal 12 aa]	0.693 ± 0.019	0.719 ± 0.047
YHKLVDEVFQHL [MPA43 C-terminal 12 aa]	0.71092 ± 0.00027	0.688 ± 0.016
YIDDIDQTIPKY [UBA4 C-terminal 12 aa]	0.7441 ± 0.0062	0.686 ± 0.0073
YILFFLFQLSIM [PEX35 C-terminal 12 aa]	0.342 ± 0.02	0.369 ± 0.015

Sequence	protein stability index [1]	protein stability index (genetic background: wild type)
YKDDEDDDIEMT [PDS5 C-terminal 12 aa]	0.679 ± 0.011	0.685 ± 0.051
YLGAKTGSLIDF [KAR5 C-terminal 12 aa]	0.702 ± 0.015	0.721 ± 0.026
YLIAVTNLVERE [PPT2 C-terminal 12 aa]	0.682 ± 0.045	0.723 ± 0.086
YLKLRGANFVLK [IES6 C-terminal 12 aa]	0.695 ± 0.013	0.684 ± 0.011
YLKRCCYHPMQN [YIL020C-A C-terminal 12 aa]	0.72572 ± 0.00065	0.679 ± 0.035
YLRRFFEVTSLV [EMP24 C-terminal 12 aa]	0.552 ± 0.011	0.338 ± 0.03
YLYVFLQQARLE [YBR032W C-terminal 12 aa]	0.51 ± 0.029	0.473 ± 0.018
YMIRFIANGYYY [SWR1 C-terminal 12 aa]	0.613 ± 0.014	0.614 ± 0.009
YMKHLLECRSLW [PCD1 C-terminal 12 aa]	0.733 ± 0.019	0.6945 ± 0.00077
YNINDLYKSLTR [MAK32 C-terminal 12 aa]	0.7059 ± 0.0029	0.711 ± 0.023
YPVGQVDRDVCC [TAD3 C-terminal 12 aa]	0.6955 ± 0.0022	0.685 ± 0.037
YQGVIYGIDGDQ [POP2 C-terminal 12 aa]	0.699 ± 0.012	0.689 ± 0.041
YSISISLHTPCV [YHR049C-A C-terminal 12 aa]	0.66 ± 0.013	0.632 ± 0.02
YTDLASIASGRD [SHS1 C-terminal 12 aa]	0.691 ± 0.016	0.714 ± 0.092
YTVLEDDANDEK [HAP1 C-terminal 12 aa]	0.673 ± 0.017	0.7 ± 0.027
YVFVFIIDFIIR [FUN26 C-terminal 12 aa]	0.213 ± 0.006	0.245 ± 0.0059
